Among the data in patent US20100196390A1 (RINAT NEUROSCIENCE, published 2010) are T1/2 values, retold here.

Residue numbers refer to the chain shown, from its start.

The chains are these.
B1: 4B12-20 (Fab, V domains shown)
VH: QVQLVQSGAEVKKPGASVKVSCKASGYTFTNYDIIWVRQAPGQGLEWMGYINPYNGRREYAEKFKGRVTMTRDTSTSTVYMELSSLRSEDTAVYYCARLLKYRRFRYYAIDYWGQGTTVTVSS
VL: DIQMTQSPSSLSASVGDRVTITCRASEPVYSNVAWYQQKPGKAPKLLIYAASNLQSGVPSRFSGSGSGTDYTFTISSLQPEDIATYYCQHFWGSPFTFGQGTKLEIK
notes: Fab
B2: 8-C8 (Fab, V domains shown)
VH: B1 VH with D33V, I35L, G56D, R57G, R58T, E59K, A61N
VL: B1 VL with P28N, V33L, Y71F, G93Y, T97G
notes: Fab
B3: 9-D11 (Fab, V domains shown)
VH: B1 VH with D33V, I35L, G56D, R57G, R58T, E59K, A61N, R106K
VL: B1 VL with P28N, V33L, Y71F, G93M
notes: Fab
B4: 8-G2 (Fab, V domains shown)
VH: B1 VH with D33V, I35L, G56D, R57G, R58T, E59K, A61N, Y107F
VL: B1 VL with P28N, V33L, Y71F, W92G, G93Y, T97I
notes: Fab
B5: 4B12-29 (Fab, V domains shown)
VH: B1 VH with A61N, F105A
VL: B1 VL
notes: Fab
B6: 7-B8 (Fab, V domains shown)
VH: B1 VH with D33V, I35L, G56D, R57G, R58T, E59K, A61N
VL: B1 VL with P28N, V33L, Y71F, G93Y, F96C
notes: Fab
B7: 7-D1 (Fab, V domains shown)
VH: B1 VH with D33V, I35L, G56D, R57G, R58T, E59K, A61N, R106S, Y112V
VL: B1 VL with P28N, V33L, Y71F, G93Y, S94L
notes: Fab
B8: 5-B1 (Fab, V domains shown)
VH: B1 VH with D33V, I35L, G56D, R57G, R58T, E59K, A61N, R106T, D111H
VL: B1 VL with P28N, V33L, Y71F, G93Y
notes: Fab
B9: 4B12-22 (Fab, V domains shown)
VH: B1 VH with A61N, R103A
VL: B1 VL
notes: Fab
B10: 7-C11 (Fab, V domains shown)
VH: B1 VH with D33V, I35L, G56D, R57G, R58T, E59K, A61N, R106S
VL: B1 VL with P28N, V33L, Y71F, W92K, G93Y
notes: Fab
B11: 4B12-26 (Fab, V domains shown)
VH: B1 VH with A61N, R106A
VL: B1 VL
notes: Fab
B12: 4B12-28 (Fab, V domains shown)
VH: B1 VH with A61N, F105E
VL: B1 VL
notes: Fab
B13: 10-C10 (Fab, V domains shown)
VH: B1 VH with A61N
VL: B1 VL with P28N, S31R, V33L, Y71F, W92V, G93Y
notes: Fab
B14: 7-F1 (Fab, V domains shown)
VH: B1 VH with D33V, I35L, G56D, R57G, R58T, E59K, A61N
VL: B1 VL with P28N, V33L, Y71F, H90N, G93Y
notes: Fab
B15: 8-H7 (Fab, V domains shown)
VH: B1 VH with D33V, I35L, G56D, R57G, R58T, E59K, A61N, R106S, Y107F
VL: B1 VL with P28N, V33L, Y71F, W92V, G93Y
notes: Fab
B16: 10-B9 (Fab, V domains shown)
VH: B1 VH with G56D, R57G, E59K, Y60E, A61N
VL: B1 VL with V33L, Y71F
notes: Fab
B17: 4B12-23 (Fab, V domains shown)
VH: B1 VH with A61N, R104A
VL: B1 VL
notes: Fab
B18: 10-A7 (Fab, V domains shown)
VH: B1 VH with A61N
VL: B1 VL with P28N, N32H, V33L, Y71F, G93Y
notes: Fab
B19: 10-C7 (Fab, V domains shown)
VH: B1 VH with Y50H, A61N
VL: B1 VL with P28S, V33L, Y71F, W92V, G93Y
notes: Fab
B20: 4B12-25 (Fab, V domains shown)
VH: B1 VH with A61N, K101R
VL: B1 VL
notes: Fab
B21: 9-G8 (Fab, V domains shown)
VH: B1 VH with D33V, I35L, G56D, R57G, R58T, E59K, A61N, R106S
VL: B1 VL with P28N, V33L, Y71F, G93Y, T97W
notes: Fab
B22: 5-B2 (Fab, V domains shown)
VH: B1 VH with D33V, I35L, G56D, R57G, R58T, E59K, A61N, R106S
VL: B1 VL with P28N, V33L, Y71F, W92D, G93Y
notes: Fab
B23: 5-D1 (Fab, V domains shown)
VH: B1 VH with D33V, I35L, G56D, R57G, R58T, E59K, A61N, Y112V
VL: B1 VL with P28N, V33L, Y71F, H90N, G93Y
notes: Fab
B24: 9-D9 (Fab, V domains shown)
VH: B1 VH with D33V, I35L, G56D, R57G, R58T, E59K, A61N
VL: B1 VL with P28N, V33L, Y71F, G93Y, T97A
notes: Fab
B25: 6-B4 (Fab, V domains shown)
VH: B1 VH with D33V, I35L, G56D, R57G, R58T, E59K, A61N, R106Q
VL: B1 VL with P28N, V33L, Y71F, G93Y
notes: Fab
B26: 10-A5 (Fab, V domains shown)
VH: B1 VH with G56D, R57G, R58T, E59K, A61N
VL: B1 VL with P28T, V33L, Y71F
notes: Fab
B27: 6-D12 (Fab, V domains shown)
VH: B1 VH with D33V, I35L, G56D, R57G, R58T, E59K, A61N
VL: B1 VL with P28N, V33L, Y71F, G93A
notes: Fab
B28: 6-B11 (Fab, V domains shown)
VH: B1 VH with D33V, I35L, G56D, R57G, R58T, E59K, A61N, R106S
VL: B1 VL with P28N, V33L, Y71F, G93Q
notes: Fab
B29: 5-G4 (Fab, V domains shown)
VH: B1 VH with D33V, I35L, G56D, R57G, R58T, E59K, A61N, R106S
VL: B1 VL with P28N, V33L, Y71F
notes: Fab
B30: 6-E10 (Fab, V domains shown)
VH: B1 VH with D33V, I35L, G56D, R57G, R58T, E59K, A61N, R104P, R106S
VL: B1 VL with P28N, V33L, Y71F, W92S, G93L
notes: Fab
B31: 5-B8 (Fab, V domains shown)
VH: B1 VH with D33V, I35L, G56D, R57G, R58T, E59K, A61N
VL: B1 VL with P28N, V33L, Y71F, H90Q, G93Y
notes: Fab
B32: 9-D6 (Fab, V domains shown)
VH: B1 VH with D33V, I35L, G56D, R57G, R58T, E59K, A61N, R106S, Y112V
VL: B1 VL with P28N, V33L, Y71F, W92S, G93Y
notes: Fab
B33: 7-B9 (Fab, V domains shown)
VH: B1 VH with D33V, I35L, G56D, R57G, R58T, E59K, A61N, R106S, Y112V
VL: B1 VL with P28N, V33L, Y71F, G93Y, F96W
notes: Fab
B34: 4B12-21 (Fab, V domains shown)
VH: B1 VH with A61N, K101A
VL: B1 VL
notes: Fab
B35: 7-B1 (Fab, V domains shown)
VH: B1 VH with D33V, I35L, G56D, R57G, R58T, E59K, A61N
VL: B1 VL with P28N, V33L, Y71F, G93Y, T97K
notes: Fab
B36: 6-H12 (Fab, V domains shown)
VH: B1 VH with D33V, I35L, G56D, R57G, R58T, E59K, A61N, R106S
VL: B1 VL with P28N, V33L, Y71F, G93H
notes: Fab
B37: 6-A6 (Fab, V domains shown)
VH: B1 VH with D33V, I35L, G56D, R57G, R58T, E59K, A61N, R106K
VL: B1 VL with P28N, V33L, Y71F, G93Y, T97V
notes: Fab
B38: 4B12-27 (Fab, V domains shown)
VH: B1 VH with A61N, Y102A
VL: B1 VL
notes: Fab
B39: 8-B2 (Fab, V domains shown)
VH: B1 VH with D33V, I35L, G56D, R57G, R58T, E59K, A61N
VL: B1 VL with P28N, V33L, Y71F, W92Y, G93Y
notes: Fab
B40: 8-D2 (Fab, V domains shown)
VH: B1 VH with D33V, I35L, G56D, R57G, R58T, E59K, A61N, R106S, I110A
VL: B1 VL with P28N, V33L, Y71F, H90N, G93Y
notes: Fab
B41: 5-F1 (Fab, V domains shown)
VH: B1 VH with D33V, I35L, G56D, R57G, R58T, E59K, A61N, R106K
VL: B1 VL with P28N, V33L, Y71F, G93Y, T97L
notes: Fab
B42: 4B12-24 (Fab, V domains shown)
VH: B1 VH with A61N, R106S
VL: B1 VL
notes: Fab
B43: 6-C10 (Fab, V domains shown)
VH: B1 VH with D33V, I35L, G56D, R57G, R58T, E59K, A61N
VL: B1 VL with P28N, V33L, Y71F, G93Y, P95W
notes: Fab
B44: 5-E2 (Fab, V domains shown)
VH: B1 VH with D33V, I35L, G56D, R57G, R58T, E59K, A61N, R106K
VL: B1 VL with P28N, V33L, Y71F, G93Y
notes: Fab

TrkB, sequence (Q16620 32-430 limits assumed): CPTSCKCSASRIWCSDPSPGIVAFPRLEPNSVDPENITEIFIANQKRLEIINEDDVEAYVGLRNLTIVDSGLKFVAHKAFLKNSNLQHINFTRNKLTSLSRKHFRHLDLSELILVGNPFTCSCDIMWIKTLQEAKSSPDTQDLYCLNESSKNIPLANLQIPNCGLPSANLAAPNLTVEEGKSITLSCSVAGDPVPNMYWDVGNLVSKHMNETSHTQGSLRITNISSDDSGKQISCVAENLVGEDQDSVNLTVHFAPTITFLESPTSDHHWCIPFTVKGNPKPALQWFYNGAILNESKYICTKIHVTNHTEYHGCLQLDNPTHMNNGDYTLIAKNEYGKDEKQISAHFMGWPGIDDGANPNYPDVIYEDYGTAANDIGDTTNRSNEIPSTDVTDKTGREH

The test addresses TrkB (Homo sapiens (Human), UniProt Q16620 32-430). Nature of the test: koff of Fab at 25 C; T1/2=Log2/koff. A digest of the protocol:
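Monovalent Fab fragments were tested at 25° C by surface plasmon resonance on a Biacore instrument, against TrkB extracellular-domain monomer amine-coupled to the chip at low capacity. Fabs were injected low to high as a 3-fold serial dilution from 100 nM for 84 sec, with a 10 minute dissociation after the top sample. The dissociation half-life was calculated from koff, which was fitted to a Langmuir binding model in BIAevaluation. The formula used was T1/2 = Log 2/koff.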
As to B1, the T1/2 worked out at 12.2 min.

On to B2, for which the T1/2 worked out at 1.78 min.

With B3, the T1/2 was found to be 1.55 min.

With B4, the T1/2 came to 1.88 min.

With B5, the T1/2 stood at 5.6 min.

B6 displayed a T1/2 of 1.18 min.

In turn, B7 registered a T1/2 of 0.7 min.

Turning to B8, the T1/2 was 1.36 min.

B9 showed a T1/2 of 3.5 min.

B10 gave a T1/2 of 1.07 min.

In the case of B11, the T1/2 came to 8.1 min.

For B12, the T1/2 was determined as 5.4 min.

Take B13: the T1/2 came out at 4.3 min.

B14 had a T1/2 of 0.54 min.

For the molecule B15, the T1/2 was 1.18 min.

B16 displayed a T1/2 of 4 min.

Molecule B17 gave a T1/2 of 10.8 min.

Regarding B18, the T1/2 turned out to be 3 min.

Regarding B19, the T1/2 was found to be 4.1 min.

Take B20: the T1/2 worked out at 1.1 min.

The molecule B21 registered a T1/2 of 1.13 min.

In the case of B22, the T1/2 came to 1.55 min.

On to B23, for which the T1/2 is 1.61 min.

The molecule B24 registered a T1/2 of 1.54 min.

With B25, the T1/2 was 1.55 min.

With B26, the T1/2 stood at 1 min.

Turning to B27, the T1/2 turned out to be 1.7 min.

B28: the T1/2 stood at 1.44 min.

B29: the T1/2 turned out to be 1.35 min.

For the molecule B30, the T1/2 was determined as 1.3 min.

In turn, B31 gave a T1/2 of 1.82 min.

B32 yielded a T1/2 of 1.45 min.

In turn, B33 showed a T1/2 of 1.79 min.

On to B34, for which the T1/2 came to 0.3 min.

Molecule B35 yielded a T1/2 of 0.81 min.

Turning to B36, the T1/2 came to 1.54 min.

Take B37: the T1/2 is 1.59 min.

In turn, B38 had a T1/2 of 0.5 min.

The molecule B39 registered a T1/2 of 1.46 min.

In the case of B40, the T1/2 came to 1.81 min.

Molecule B41 displayed a T1/2 of 1.6 min.

Regarding B42, the T1/2 worked out at 6 min.

B43 returned a T1/2 of 1.55 min.

On to B44, for which the T1/2 came to 1.66 min.
